Test: soluble on expression in E. coli; label from the status in PepcDB or PDB records
In the case of “MDVVILDTGCANLSSVTYAVQRLGYTPVISRDPAVVLRADKLFMPGVGTAHAAMEQLRQRELIELIKSCTQPVLGICLGMQLLATSSEESGGITTLGMIDAPVKKMTDFGLPLPHMGWNQITAQAGNHLFRGIPDGTYFYFVHGYAMPICPNTIAQTNYGEPFTAAVEKDNFFGVQFHPERSGAAGAQLMKNFLEM”, the “soluble on expression in E. coli” value is reported as “not soluble”.
In the case of “MATGQDRVVALVDMDCFFVQVEQRQNPHLRNKPCAVVQYKSWKGGGIIAVSYEARAFGVTRSMWADDAKKLCPDLLLAQVRESRGKANLTKYREASVEVMEIMSRFAVIERASIDEAYVDLTSAVQERLQKLQGQPISADLLPSTYIEGLPQGPTTAEETVQKEGMRKQGLFQWLDSLQIDNLTSPDLQLTVGAVIVEEMRAAIERETGFQCSAGISHNKVLAKLACGLNKPNRQTLVSHGSVPQLFSQMPIRKIRSLGGKLGASVIEILGIEYMGELTQFTESQLQSHFGEKNGSWLYAMCRGIEHDPVKPRQLPKTIGCSKNFPGKTALATREQVQWWLLQLAQELEERLTKDRNDNDRVATQLVVSIRVQGDKRLSSLRRCCALTRYDAHKMSHDAFTVIKNCNTSGIQTEWSPPLTMLFLCATKFSASAPSSSTDITSFLSSDPSSLPKVPVTSSEAKTQGSGPAVTATKKATTSLESFFQKAAERQKVKEASLSSLTAPTQAPMSNSPSKPSLPFQTSQSTGTEPFFKQKSLLLKQKQLNNSSVSSPQQNPWSNCKALPNSLPTEYPGCVPVCEGVSKLEESSKATPAEMDLAHNSQSMHASSASKSVLEVTQKATPNPSLLAAEDQVPCEKCGSLVPVWDMPEHMDYHFALELQKSFLQPHSSNPQVVSAVSHQGKRNPKSPLACTNKRPRPEGMQTLESFFKPLTH”, the “soluble on expression in E. coli” value is reported as “soluble”.
In the case of “MTNTSFDNSTIVVGVAGGIAAYKSCHVVRGFKEDGANVVVVPTSAALNFVGKATFEALSGNPVSTTVFDAVDEVRHVNVGQHADLIVVAPATADLIARVAMGRADDLLTATLLVATCPIVLVPAMHAEMWSNAATRENVATLRRRGIIVMDPAHGRLTGADTGPGRLPDSDQIIDFAKTVARTKVMPRDLVGKKVL”, the “soluble on expression in E. coli” value is reported as “not soluble”.
In the case of “MGDTFIRHIALLGFEKRFIPSQHYVYMFLVKWQDLSEKVVYRKFTEIYEFHKMLKEMFPIEAGEIHTENRVIPHLPAPRWFDGQRAAESRQGTLTEYFNGLMGLPVKISRCPHLLDFFKVRPDDLKLPTDSQAKKPETYLVPKDGKNNVADITGPIILQTYRAIADYEKSSGTEMTVATGDVVDVVEKSESGWWFCQMKTKRGWVPASYLEPLDSPDEAEDPDPNYAGEPYVTIKAYAAVEEDEMSLSEGEAIEVIHKLLDGWWVVRKGDITGYFPSMYLQKAGEEITQAQRQIRGRGAPPRRSTIRNAQSIHQRSRKRLSQDTYRRNSVRFLQQRRRPGRPGPLSTDGTKDNPSTPRVKPQPAVPPRPSSDLILHRCTESTKRKLTSAV”, the “soluble on expression in E. coli” value is reported as “soluble”.
In the case of “MAHHHHHHMHYTGVGIEDVKVRFNEKMRLSASLQRRKSEEVEWSLFWEALNKGDGKMISEALSGASVSGATQQIGMAEACAVLLKGAGKEWHTRIVDDLPFSTVTRCSLLHAALAEKRPDVAAEMLSHARVTRSDLSSLWPLMAKCTWEEVLRMISACPKNAVPYNQALPFILKQGCSLQTLSEHLEHARVLGDADVVAPLLAYAVEMEDWPYVERCVGHLVDIGKITPSAREAFGHLCKLHGPKRVCHRLMEHHVELSSMTIEDLESLRF”, the “soluble on expression in E. coli” value is reported as “not soluble”.
With “MGSDKIHHHHHHMQGRTPLLETLRELECEIRLLTVYARECCGCYEILRRKLDRLSGLIGEDCSRAQWQADSDDPALQALGLRLRDAAVQALCELEKHLCQGVLHEPGEMGRYLGSLLESIRGELDSAGIYAYARVLFVGSGALPTSALVLAREVGAHLCCLDIDEEALGCAREIARCQGLEARMQFSSLPPAELAFSRDATHFLIASLVQQKSAVLAQIRQVMRADAKVLLRHGSGIKGLFNYPVEPAELDGWRVCAERVSQPLYDTLILEKAGR” the “soluble on expression in E. coli” value was “not soluble”.
With “MSKYAGIVLAGGMSSRFGEPKALAIWKETTFVEHIVKVMGNTLQDIVVISHTDIKERVEQFVQVPVIEDIPHYKGNGPLAGIVSGMEYIEADWYAIMPCDAPNVSHEWFTILLEQTNNEYDAVVPIINGRKQPLLAAYHNRVKEKIYALLQEEKRSMGQLLSQCNVKYVSGEDVQANADWFINVNTKEEYVQAQKDLSNE” the “soluble on expression in E. coli” value was “soluble”.
For “MSLLKCSICINDERITRILIVDGRPICKECKVFLEHPPDKEKIKKELEEILSKVDKAIVAYSGGKDSIVALYLAKEKYSIDVEAVMVDHGFIAPQAIKNAKNVAKYLDVPLTIIKRDYSDIFREALLKAKSPCRKCSRRTMEILRKYALKKGYRYMITGHELPFGHHPYRLMSGGIIQVRILSLMSEEERMKILKKLPVELPELPGYTSNCLILGPALQRFWERHGYSFEHRRIAALVRYGLLNKEKALKKVQKPEVPQWQWELVKKKLKLEDGFEGHHHHHH”, the “soluble on expression in E. coli” value was “soluble”.
With “MPTALIADDEPNLSAELAERLAELWPELEIVAMPRNGVDTLAALNAARPDIAFLDIRMPGIDGLKLASLVPDVHVVFVTAYDEYAVEAFDRSAIDYLLKPVTDERLLRCIAKLQRGGFAPPGAQALSDARMPKEPTLIRWLTVGLKDTTRLVSVDDVLYFQALDKYTEVVTAGERHVIRTPLKELLQRLDQDRFAQVHRGVIVAYAAIDRIERDLLGRLCIHLHGHRDVLPVSRAYAGLFKHM” the “soluble on expression in E. coli” value was “not soluble”.
In the case of “MSLDSSPHSQVNDPLESFNRQMWTINYDYLDPYVVRPVSLFYVGYVPKPVRSGIANFLSNLDEPASMVNNLLMGNGTKAVDHFNRFWINTSFGLLGLIDIASEAGIKKYDDKAFSDAVGHYGVGNGPYLMVPGYGPYTVREVTDVVDGMYFPLAYLNIWAGVGKWALEGMETRAALVSQEALLQDSPDPYSLARDAYLQRQAFKAEIQVDDYDPEEEEYLDEYLNEGEGHHHHHH”, the “soluble on expression in E. coli” value is reported as “soluble”.
For “MTVYFIGAGPGAADLITVRGQRLLQRCPVCLYAGSIMPDDLLAQCPPGATIVDTGPLTLEQIVRKLADADADGRDVARLHSGDPSLYSALAEQCRELDALGIGYEIVPGVPAFAAAAAALKRELTVPGVAQTVTLTRVATLSTPIPPGEDLAALARSRATLVLHLAAAQIDAIVPRLLDGGYRPETPVAVVAFASWPQQRTLRGTLADIAARMHDAKITRTAVIVVGDVLTAEGFTDSYLYSVARHGRYAQ”, the “soluble on expression in E. coli” value was “not soluble”.
In the case of “NIYDVAHDLDKGIRETPEFISLQDAYREVNENADAKAKFERFRDVQVTIQEKQMTGQEIDDETVNVAQQVAQEVQENELIVKLMEKEQAMSTIINDLNRIIMTPLQDLYNVA”, the “soluble on expression in E. coli” value is reported as “not soluble”.
For “MAHHHHHHMATSSHRTAMSSLSAAMKQYVQQAAEDDVVCAFGPDYFHGARTGACVGSLFSATLCWYTFRLLKEDQREVDFLAGLKHGQRNPHFSTWTLLRGLRTQPMLTTGCIALATTSAMKCIKCYLANQRCREFFTDDVQFHMISELSETDLDAAAFLSTVLHNANGCGVGARNALSTLREDRSEDQPSMSPAPTASASTSTVNGLLHTHSSRLDSKEFTLTHRAPTYYDGVAVAFLGSVLDCYLPQKPVQKYYNMRVGTW”, the “soluble on expression in E. coli” value was “not soluble”.
With “MFGGDTLYELRCSLQLAETEREGGFSPHISPFTAVNDLGHLLGRAGFNTLTVDTDEIQVNYPGMFELMEDLKGMGESNCSWNRKALLHRDTMLAAAAVYREMYRNEDGSIPATFQIYHMIGWKYHDSQARPAERGSATVSFGELAKLNDVMSHEKK” the “soluble on expression in E. coli” value was “soluble”.
With “MFLINGHKQESLAVSDRATQFGDGCFTTARVIDGKVSLLSAHIQRLQDACQRLMISCDFWPQLEQEMKTLAAEQQNGVLKVVISRGSGGRGYSTLNSGPATRILSVTAYPAHYDRLRNEGITLALSPVRLGRNPHLAGIKHLNRLEQVLIRSHLEQTNADEALVLDSEGWVTECCAANLFWRKGNVVYTPRLDQAGVNGIMRQFCIRLLAQSSYQLVEVQASLEESLQADEMVICNALMPVMPVCACGDVSFSSATLYEYLAPLCERPN” the “soluble on expression in E. coli” value was “soluble”.
With “MGSDKIHHHHHHMPAIELSNGEARLLARPDLGAGLTAFDVLHDGVWQAIFRRVDPSTAHPFALSNILLVPFSGRVSGGGFTFDGTFHALPRNVETELYPIHGNGFSAAWDVASLSADLLTLTLSAEGPGPFRYDATMSYRLQGAGLLMELSLVNRARIRLPYGAGFHPWFVREPDTTLHAPARGVWLEQSDHLPKAHDAIAAQADLDFNRPKPLPARWINNWFDGWDGKARIHWPSRGLAVDVDASEGLRQYVVFSPAAAADFFCFEPVTHPVDAFNLPGKAEAHGLKILEPDESLAVSARVAADFG” the “soluble on expression in E. coli” value was “not soluble”.
With “MSLKSHVRSFKTYIRDEIIKKGGWVNAHAHADRAFTMTPEKIGIYHSSNLQQKWDLVDEVKRTSSVDDYYARFCQSIELMISQGVTAFGTFVDIDPICEDRAIIAAHKAREVYKHDIILKFANQTLKGVIEPTARKWFDIGAEMVDMIGGLPYRDELDYGRGLEAMDILLDKAKSLGIMCHVHVDQFNNPSEKETEQLCDKTIEHGMEGRVVGIHGISIGSHSKEYRYKLYEKMRKAKMMMIACPMAWIDSNRKEDLMPFHNALTPADEMIPEGITVALGTDNICDYMVPLCEGDLWQELSLLAAGCRFPHLDEMVNIASINGRKVLGLELIEGHHHHHH” the “soluble on expression in E. coli” value was “soluble”.
For “MGSDKIHHHHHHMKIAQVCPRFYPHIGGVETHVYEIASRIAKKFDVEVLTTDPGGKLPKVEEIDGLTVRRFKSLAPSEAYYFSPELYDYLKKNSSDYDVVHAHNYHAFPALFAALTKGKNKLIFTPHYHGSGHSFFRNVLHKPYKIFGRKIFKRADAIVCVSNYEKNLVLKNFKVAEDRTYVIPNGINLDEFKDIEKIKRNKESWKKTILYVGRVEKYKGLDYVVKSLKHLPDNFTLEVVGKGSYKSKIVEMAKKLDVIDRIRFYQDLSRKELIDRYAKADVLVLLSKHEAYGIVVAEALAAKTPCIVANTSALSEWIDNKNVFGIDYPINVSELARLIERVSNVKAGDMKLLDWDDVNERLIRIYSAKI”, the “soluble on expression in E. coli” value was “not soluble”.
In the case of “MSELGAKYQQLQNELEEFIVARQKLETQLQENKIVNEEFDQLEEDTPVYKLTGNVLLPVEQSEARTNVDKRLEFIETEITRCEKNIRDKQEELEKMRSELIKLNNTAASTGPGR”, the “soluble on expression in E. coli” value is reported as “soluble”.
With “MAQGFAVGFDPLGLGDLSSGSLSSLSSRGHLGSDSGSTATRYLLRKQQRLLNGPPRGIRASSPMGRVILINSPIEANSDESDIIHSVRVEKSPAGRLGFSVRGGSEHGLGIFVSKVEEGSSAERAGLCVGDKITEVNGLSLESTTMGSAVKVLTSSSRLHMMVRRMGRVPGIKFSKEKTTWVDVVNRRLVVEKCGSTPSDTSSEDGVRRIVHLYTTSDDFCLGFNIRGGKEFGLGIYVSKVDHGGLAEENGIKVGDQVLAANGVRFDDISHSQAVEVLKGQTHIMLTIKETGRYPAYKEMVSEYCWLDRLSNGVLQQLSPASESSSSVSSCASSAPYSSGSLPSDRMDICLGQEEPGSRGPGWGRADTAMQTEPDAGGRVETWCSVRPTVILRDTAIRSDGPHPGRRLDSALSESPKTALLLALSRPRPPITRSQSYLTLWEEKQQRKEKSGSPGEKGALQRSKTLMNLFFKGGRQGRLARDGRREAWTLDSGSLAKTYPRLDIEKEMGAT” the “soluble on expression in E. coli” value was “soluble”.
In the case of “MGSSSSFSSSSSKLLFRQLFENESSTFTYLLADVSHPDKPALLIDPVDKTVDRDLKLIDELGLKLIYAMNTHVHADHVTGTGLLKTKLPGVKSVISKASGSKADLFLEPGDKVSIGDIYLEVRATPGHTAGCVTYVTGEGADQPQPRMAFTGDAVLIRGCGRTDFQEGSSDQLYESVHSQIFTLPKDTLIYPAHDYKGFEVSTVGEEMQHNPRLTKDKETFKTIMSNLNLSYPKMIDVAVPANMVCGLQDVPSQAN”, the “soluble on expression in E. coli” value is reported as “soluble”.
In the case of “MRYFLCPGKTDMRKGMNSLCGVIHNKMGYDVRLGDVFIFINRQRTTMKLLHAEDGDLVLYIKRLEEGTFRLPEYDQQSRSYPMEWRDLVMMVKGINNGSAKRLKRLKALRKSDI”, the “soluble on expression in E. coli” value is reported as “not soluble”.
